Laboratory results taken from patent US8809001B2, “High throughput assays for inhibitors and activators of PAQR receptors” (University of Florida Research Foundation, Inc., priority 2007, dated 2014).

Tests used:
AdipoR1 = target: T1, AdipoR1 (Homo sapiens, UniProt Q96A54); experiment: FET3-lacZ (pFET3-397) reporter repression in yeast expressing AdipoR1; assay type: cell-based; settings: low levels of AdipoR1 (0.02% galactose)
T1 construct: expressed in transfected cells; host or cells: Saccharomyces cerevisiae BY4742, GAL1-driven pYES260 plasmid
T1 sequence (Q96A54 1-375): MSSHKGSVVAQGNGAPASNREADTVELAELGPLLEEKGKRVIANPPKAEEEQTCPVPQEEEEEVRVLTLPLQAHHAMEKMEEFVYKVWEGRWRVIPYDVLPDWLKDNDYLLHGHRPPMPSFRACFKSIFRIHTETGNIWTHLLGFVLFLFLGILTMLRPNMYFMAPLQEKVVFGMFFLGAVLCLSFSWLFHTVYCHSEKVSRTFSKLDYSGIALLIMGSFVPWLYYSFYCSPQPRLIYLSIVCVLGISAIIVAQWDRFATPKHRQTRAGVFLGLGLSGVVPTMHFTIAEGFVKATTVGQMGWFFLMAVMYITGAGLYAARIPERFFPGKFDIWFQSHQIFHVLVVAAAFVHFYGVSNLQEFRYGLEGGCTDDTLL
Source text: IZH1-4 were cloned into pRS316-GAL1 via gap repair as previously described (Lyons et al., 2004). The triple hemaglutinin epitope (3×HA) tagged construct of the IZH2 gene was generated by replacing the ZRC1 promoter and open reading frame in the YCpZRC1-HA plasmid (MacDiarmid et al., 2002) with those of IZH2. This was accomplished by gap repair of Age I-digested YCpZRC1-HA to generate pIZH2-3×HA. This construct has the IZH2 gene driven by its native promoter and retains the ZRC1 terminator sequence. The native IZH2 promoter was then exchanged with the GAL1 promoter using gap repair of pIZH2-3×HA plasmids cut with EcoN I. AdipoR1 and AdipoR2 were amplified from cDNAs obtained from OpenBiosystems (Accession #: BC010743 and BC051858, respectively). PCR products were cloned into NcoI/BamHI digested pYES260 vector (Melcher, 2000) by gap repair allowing for GAL1-driven expression. Plasmids containing GAL1-driven the TAP (Tandem Affinity Purification) tagged NRG1 and NRG2 constructs were purchased from OpenBiosystems. […]
(§1) Assays and growth conditions. […] Cells were allowed to grow to mid-log phase at which time the activity of the FET3 gene was monitored using a FET3-lacZ promoter-reporter construct. lacZ activities are presented as a percentage of activity seen in untreated cells expressing the appropriate empty expression vector control. […]

AdipoR2 = experiment: FET3-lacZ (pFET3-397) reporter repression in yeast expressing AdipoR2; assay type: cell-based, human
Source text: IZH1-4 were cloned into pRS316-GAL1 via gap repair as previously described (Lyons et al., 2004). The triple hemaglutinin epitope (3×HA) tagged construct of the IZH2 gene was generated by replacing the ZRC1 promoter and open reading frame in the YCpZRC1-HA plasmid (MacDiarmid et al., 2002) with those of IZH2. This was accomplished by gap repair of Age I-digested YCpZRC1-HA to generate pIZH2-3×HA. This construct has the IZH2 gene driven by its native promoter and retains the ZRC1 terminator sequence. The native IZH2 promoter was then exchanged with the GAL1 promoter using gap repair of pIZH2-3×HA plasmids cut with EcoN I. AdipoR1 and AdipoR2 were amplified from cDNAs obtained from OpenBiosystems (Accession #: BC010743 and BC051858, respectively). PCR products were cloned into NcoI/BamHI digested pYES260 vector (Melcher, 2000) by gap repair allowing for GAL1-driven expression. Plasmids containing GAL1-driven the TAP (Tandem Affinity Purification) tagged NRG1 and NRG2 constructs were purchased from OpenBiosystems.
Most experiments were performed in a defined EDTA-containing medium known as low iron medium (LIM) (Eide et al., 1992). Iron-deficiency and repletion were generated by adding either 1 μM or 1 mM of FeCl3, respectively, to LIM. 2% galactose was used to fully induce GAL1-driven gene overexpression. Total sugar concentration was maintained at 2% by the addition of raffinose in those experiments in which the % galactose was modulated to decrease expression levels. Cells were allowed to grow to mid-log phase in LIM and β-galactosidase assays on permeabilized yeast were performed as previously described (Lyons et al., 2000). […]
as §1

FET3 = experiment: FET3-lacZ reporter in wild type yeast carrying empty expression plasmid; assay type: cell-based, Saccharomyces cerevisiae; settings: no human PAQR
Source text: Assays and growth conditions. Strains were maintained using standard protocol and grown in synthetic defined (SD) media with the appropriate amino acids to match the auxotrophies of the individual strains. Low Iron Medium (LIM) contains EDTA to limit iron-bioavailability and its composition has been previously described (Kupchak et al., 2007). […] In brief, overnights of cells grown in SD-glucose media were re-inoculated into iron-deficient LIM to induce the expression of FET3. 2% galactose was used as a carbon source to induce full expression of PAQR genes driven by the GAL1 promoter, while 0.05% galactose/1.95% raffinose was used for reduced PAQR expression. All ligands were added to the growth medium upon re-inoculation into LIM. For experiments in which steroids were added as ligands, steroids were added from ethanol stocks and “untreated” controls are actually treated with an equal volume of ethanol to control for vehicle effects. Cells were allowed to grow to mid-log phase at which time the activity of the FET3 gene was monitored using a FET3-lacZ promoter-reporter construct. lacZ activities are presented as a percentage of activity seen in untreated cells expressing the appropriate empty expression vector control. For individual experiments, each data point has been done in triplicate and the error bars represent +/−1 standard deviation. All experiments were performed at least three times and a representative experiment is shown. EC50 values were obtained using the web-based BioDataFit software using sigmoidal curve-fitting. (web site changbioscience.com/stat/ec50.html)

AdipoR2, sequence (Q86V24 76-386 limits assumed): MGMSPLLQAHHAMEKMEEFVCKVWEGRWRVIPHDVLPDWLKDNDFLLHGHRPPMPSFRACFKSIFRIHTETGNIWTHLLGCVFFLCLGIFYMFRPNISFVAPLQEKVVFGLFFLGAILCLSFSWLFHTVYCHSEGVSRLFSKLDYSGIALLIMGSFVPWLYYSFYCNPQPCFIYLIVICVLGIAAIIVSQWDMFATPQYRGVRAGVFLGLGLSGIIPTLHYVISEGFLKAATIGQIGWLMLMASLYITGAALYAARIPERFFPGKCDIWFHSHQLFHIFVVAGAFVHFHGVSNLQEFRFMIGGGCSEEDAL

B1: Adiponectin: insulin-sensitizing hormone, agonist of the human adiponectin receptors AdipoR1 and AdipoR2 (protein, UniProt Q15848 19-244, looked up)
Adiponectin: ETTTQGPGVLLPLPKGACTGWMAGIPGHPGHNGAPGRDGRDGTPGEKGEKGDPGLIGPKGDIGETGVPGAEGPRGFPGIQGRKGEPGEGAYVYRSAFSVGLETYVTIPNMPIRFTKIFYNQQNHYDGSTGKFHCNIPGLYYFAYHITVYMKDVKVSLFKKDKAMLFTYDQYQENNVDQASGSVLLHLEVGDQVWLQVYGEGERNGLYADNDNDSTFTGFLLYHDTN
- pFET3-397 repression by adiponectin (AdipoR1): repressed in a dose-dependent manner
- EC50 (AdipoR2; AdipoR2, FET3 repression in iron-deficient LIM): 2.4 pM
- pFET3-397 repression by adiponectin (AdipoR2; AdipoR2 in 2% galactose): repressed in a dose-dependent manner
- effect of ligand on FET3 in cells carrying empty expression plasmid (FET3): did not respond
